In patent US20250313621A1 one finds EC50 (read off the curve) and % Max Inhibition, PAR1 peptide SFLLR-NH2 challenge, IP-One data, which are given here for three molecules.

Test [1] addresses Wildtype human PAR2 expressed on cells (human) (UniProt P55085). Briefly: flow cytometry on HEK293F-humanPAR2 (3.0E+06 cells/mL, w/ NaN3), overnight at about 5 C, S/BG.
For test [2], the target named is Cynomolgus PAR2 on BacMam-infected HEK293 cells (cynomolgus). Briefly: flow cytometry on HEK293F-cynoPAR2 (3.0E+06 cells/mL, w/ NaN3), overnight at about 5 C, S/BG [continued].
For test [3], the target named is Wildtype human PAR2 expressed on cells (human) (UniProt P55085). Briefly: cell-based or functional assay.
Sequence of Wildtype human PAR2 expressed on cells (human) (P55085 37-397 limits assumed): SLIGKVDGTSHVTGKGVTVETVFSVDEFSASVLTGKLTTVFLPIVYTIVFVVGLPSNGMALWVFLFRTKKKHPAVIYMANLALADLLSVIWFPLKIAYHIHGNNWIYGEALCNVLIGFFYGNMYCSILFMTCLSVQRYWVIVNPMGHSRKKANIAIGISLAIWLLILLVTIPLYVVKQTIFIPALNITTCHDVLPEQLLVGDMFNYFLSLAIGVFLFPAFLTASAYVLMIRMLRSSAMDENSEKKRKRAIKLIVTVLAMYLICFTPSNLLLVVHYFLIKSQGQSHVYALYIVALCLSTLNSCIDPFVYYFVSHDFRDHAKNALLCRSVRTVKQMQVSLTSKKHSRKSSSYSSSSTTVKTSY

B1: Benchmark 4 IgG (antibody, from another filing, V domains shown)
VH: EVQLVQSGAEVKKPGESLKISCKGSGYNFISHWIGWVRQMPGKGLEWMGMIYPGDSDTRYSPSFQGQVTISADKSINTAYLQWRSLKASDTAMYFCARHGGITGTTFYYDFGMDVWGQGTTVTVSS
VL: SYELTQPPSVSVSPGQTARITCSGDALPKQYASWYQQKPGQAPLLVIYRDSERPSGLPERFSGSSSGTTVTLTISGVQAEDEADYYCQSADSGGSYVFGTGTKVTVL
A word on the EC50 (read off the curve): it is the concentration that produces a half-maximal response. Low readings indicate an effect from little substance, high ones a need for much substance. Turning to B1, the EC50 (read off the curve) in test [1] and in test [2] was 1 nM each time.

B2: Benchmark 2 (antibody, from another filing, V domains shown)
VH: EVQLLESGGGLVQPGGSLRLSCAASGFTFSSYAMNWVRQAPGKGLEWVSTISYHGSHISYHDSVHHRFTISRDNSKNTLYLQMNSLRAEDTAVYYCARIHHDPMDVWGQGTLVTVSS
VL: SIELTQPPSVSVSPGQTASITCSGDNLGKKYVQWYQQKPGQSPVLVIYDDSNRPSGIPERFSGSNSGNTATLTISGTQAMDEADYYCQTWDGNPTTGETNVFGGGTKLTVL
As to B2, in test [3], the % Max Inhibition, PAR1 peptide SFLLR-NH2 challenge, IP-One came out at 3%.

B3: Benchmark 3 IgG (antibody, from another filing, V domains shown)
VH: QVQLVESGGGVVQPGRSLRLSCVASGFTFSRYGIHWVRQAPGKGLEWVIVISYDGINKYYADSVKGRFTISRDNSKNTVYLQMNSLRAEDTAVYYCAKGDFWSGYFDYWGQGTLVTVSS
VL: DIVMTQTPLSSPVTLGQPASISCRSSQSLVHSDGNTYLSWLHQRPGQPPRLLIYKISNRFSGVPDRFSGSGAGTDFTLQISRVEAEDVGIYYCMQATQFPTFGGGTKVEIK
As for B3, the EC50 (read off the curve) in test [1] turned out to be 1 nM; in test [2] it was 2 nM.
